Assay results as given in PMC7618200 (The Biochemical journal, 2025).
Read-outs that look alike come from different tables or passages of the source. Ends that are not written are not given here. Peptide text beside a SMILES is read from it. * marks the point of attachment. 5FAM = O=C1OC2(c3ccc(O)cc3Oc3cc(O)ccc32)c2ccc(C(=O)*)cc21; 5Flu = 5-carboxyfluorescein label

T1: SPOP MATH domain (SPOP^MATH; residues 28-166) (human, UniProt O43791 28-166)
T1 chain: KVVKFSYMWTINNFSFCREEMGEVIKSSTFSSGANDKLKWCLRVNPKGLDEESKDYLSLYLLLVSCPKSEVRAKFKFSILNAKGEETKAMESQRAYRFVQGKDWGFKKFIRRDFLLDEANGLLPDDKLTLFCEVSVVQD

T2: SPOP MATH domain (SPOP^MATH; residues 28-166) (human), O43791
T2 chain: T1 chain

B1: SRC-3 17-mer peptide 91NDDDVQKADVSSTGQGV107 (peptide)
peptide: NDDDVQKADVSSTGQGV
notes: also called NCoA-3; source: synthetic peptide
B2: Caprin1 17-mer peptide 426QPEATQVPLVSSTSEGY442 (peptide)
peptide: QPEATQVPLVSSTSEGY
notes: Caprin1, human, residues 426-442; source: synthetic peptide
B3: SETD2 17-mer peptide DKGSVQAPEISSNSIKD (printed 363-1379) (peptide)
peptide: DKGSVQAPEISSNSIKD
notes: SET domain-containing protein 2 (SETD2), human; also called SET domain-containing protein 2; source: synthetic peptide
B4: Puc-5Flu peptide (SRENLACDEVTSTTSK-5Flu) (peptide)
peptide: SRENLACDEVTSTTSK(5Flu)
notes: added C-terminal lysine that carries the label; also called ^5Flu-Puc peptide; fluorescently labeled Puc peptide; source: synthetic peptide (Peptide Synthetics, Peptide Protein Research Limited)
B5: chimeric MyD88-Puc peptide AEKPLQVAAVTSTTS (peptide)
peptide: AEKPLQVAAVTSTTS
notes: Puckered (Puc) SBC; also called chimeric peptide; source: synthetic peptide (Peptide Synthetics, Peptide Protein Research Limited)

Experiments:
[1] = target: T3, SPOP^MATH (SPOP MATH domain) (Homo sapiens, UniProt O43791); experiment: FP competition assay: unlabelled peptide versus Puc-5Flu peptide on SPOP^MATH; format: binding; conditions: read-out: IC50, FP competition, MyD88 peptides of varying length (Figure 1F)
T3 construct: bacterially expressed SPOP protein (SPOP^MATH); hexahistidine-MBP (with HRV 3C site) (N, cleaved yes); made in house; host or cells: E. coli BL21 (DE3); tracer peptide synthesized by Peptide Synthetics
Experimental: (§1) Peptides and SPOP^MATH protein were diluted in FP buffer (50 mM HEPES pH 7.5, 100 mM NaCl, 1 mM TCEP, 0.005% Tween-20). Measurements were made in 384-well black flat-bottom low-flange plates (Corning) using 20 μl reaction volumes. Plates were equilibrated at room temperature for 30 minutes before reading. Millipolarization (mP) measurements were taken in a Hidex Sense microplate reader (Hidex) at 25°C, with excitation at 490 nm (20 nm filter), emission at 520 nm (14 nm filter), and a G-factor of 1.
The technical duplicate mP values were averaged, and error bars represent standard deviation. Data were plotted and analyzed using Prism 9 software. […] IC50 values from three independent experiments were averaged and the standard deviation was calculated.

[2] = target: T3, SPOP^MATH (SPOP MATH domain); experiment: Fluorescence polarization (FP) binding of 5Flu-labelled peptides to SPOP^MATH; conditions: FP direct binding; 6-50 nM 5Flu-peptide, two-fold dilution series of SPOP^MATH; 50 mM HEPES pH 7.5, 100 mM NaCl, 1 mM TCEP, 0.005% Tween-20; 30 min at room temperature, read at 25°C; one-site total binding fit; mean ± SD of three independent experiments; ~ = estimated; read-out: Kd, binding of fluorescently (5Flu) labeled peptide to SPOP^MATH
Experimental: as §1

[3] = target: Pdx1 15-mer peptide, fluorescently labeled (SPOP-binding region of pancreas/duodenum homeobox protein 1) (not stated (Figure 5A aligns a Homo sapiens and a Mesocricetus auratus sequence)); experiment: fluorescence polarisation; two-fold dilution series of SPOP^MATH mixed with a constant 6-50 nM 5Flu-labeled peptide; 50 mM HEPES pH 7.5, 100 mM NaCl, 1 mM TCEP, 0.005% Tween-20; 25°C; one-site total binding fit; mean of three independent experiments
[4] = target: T1, SPOP MATH domain (SPOP^MATH; residues …); experiment: FP
[5] = target: T4, SPOP MATH domain (SPOP^MATH; residues 28-166) (human, UniProt O43791 28-166); experiment: fluorescence polarisation; competition: two-fold dilution series of unlabeled peptide with 50 nM Puc-5Flu peptide and 5 μM SPOP^MATH; 50 mM HEPES pH 7.5, 100 mM NaCl, 1 mM TCEP, 0.005% Tween-20; 25°C; conditions: both partners purified
T4 construct: the methods print 28-116; Cleaved with HRV 3C protease; also called speckle-type BTB/POZ protein MATH domain; source: E. coli BL21 (DE3), purified (Ni-NTA, tag cleavage, reverse Ni-NTA, SEC); not shown: His6, N-terminal, cleaved; MBP, N-terminal, cleaved

[6] = target: T4, SPOP MATH domain (SPOP^MATH; residues …); experiment: fluorescence polarisation; two-fold dilution series of SPOP^MATH mixed with a constant 6-50 nM 5Flu-labeled peptide; 50 mM HEPES pH 7.5, 100 mM NaCl, 1 mM TCEP, 0.005% Tween-20; 25°C; one-site total binding fit; mean of three independent experiments; conditions: both partners purified
[7] = target: T1, SPOP MATH domain (SPOP^MATH; residues …); experiment: FP
[8] = target: T2, SPOP MATH domain (SPOP^MATH; residues …); experiment: FP; conditions: modification not given

Row | Molecule | IC50 [4] [µM] | binding result [5] | also measured
1 | AEKPLQVAAVAAAVPRT |  |  | IC50 [1]: ~2110 µM
2 | CC(C)C[C@H](NC(=O)[C@@H]1CCCN1)C(=O)N[C@@H](CCC(N)=O)C(=O)N[C@H](C(=O)N[C@@H](C)C(=O)N[C@@H](C)C(=O)N[C@H](C(=O)N[C@@H](CC(=O)O)C(=O)N[C@@H](CO)C(=O)N[C@@H](CO)C(=O)N[C@H](C(=O)N1CCC[C@H]1C(=O)N[C@@H](CCCNC(=N)N)C(=O)N[C@H](C(=O)O)[C@@H](C)O)C(C)C)C(C)C)C(C)C |  |  | IC50 [1]: ~518 µM
3 | CC(C)[C@H](NC(=O)c1ccc2c(c1)C(=O)OC21c2ccc(O)cc2Oc2cc(O)ccc21)C(=O)N[C@@H](C)C(=O)N[C@@H](CCC(=O)O)C(=O)N1CCC[C@H]1C(=O)N[C@@H](CCC(=O)O)C(=O)N[C@@H](CCC(N)=O)C(=O)N[C@@H](CC(=O)O)C(=O)N[C@@H](CS)C(=O)N[C@@H](C)C(=O)N[C@H](C(=O)N[C@H](C(=O)N[C@@H](CO)C(=O)NCC(=O)N[C@@H](CCC(=O)O)C(=O)N[C@@H](CCC(=O)O)C(=O)O)[C@@H](C)O)C(C)C (5FAM-VAEPEQDCAVTSGEE-OH) |  |  | Kd [2]: ~48 µM
4 | SPOP MATH domain (SPOP^MATH; residues 28-166) (from UniProt O43791 28-166) (domain or fragment) |  |  | Kd [3]: 48 µM
5 | B1 | 16.9 | binds | 
6 | LVSSTSEGY [Caprin1 9-mer peptide] | ~773 |  | 
7 | DTDNLQSEQLSSSSDGS [SENP7 17-mer peptide] | ~2400 |  | 
8 | B2 | 2.6 | binds | 
9 | B3 | ~699 | binds | 
10 | B4 |  |  | Kd [6]: 1.1 µM
11 | B5 |  | binds | 
12 | SRENLACDEVTSTTS [Puc peptide (unlabeled competitor; natural Puc peptide)] |  |  | IC50 [7]: 98.6 µM
13 | AEKPLQVAAVAAAVPRT […] |  |  | IC50 [8]: 2110 µM
